Measured values published in the supplement of paper PMC11246515.
± gives the standard deviation of the averaged measurements.

Assay: total protein half-life in vivo (active degradation + dilution); higher = more stable protein
[1] = E. coli NCM3722 delta-lon, growth: N-lim chemostat, doubling time 6 h
[2] = E. coli NCM3722 delta-smpB, growth: N-lim chemostat, doubling time 6 h
[3] = wild type E. coli NCM3722, growth: C-lim chemostat, doubling time 6 h
[4] = wild type E. coli NCM3722, growth: C-lim chemostat, doubling time 12 h
[5] = E. coli NCM3722 delta-clpP delta-lon delta-hslV, growth: N-lim chemostat, doubling time 6 h
[6] = E. coli NCM3722 delta-hslV, growth: N-lim chemostat, doubling time 6 h
[7] = wild type E. coli NCM3722, growth: C-lim chemostat, doubling time 3 h
[8] = wild type E. coli NCM3722, growth: N-lim chemostat, doubling time 6 h
[9] = wild type E. coli NCM3722, growth: P-lim chemostat, doubling time 6 h
[10] = wild type E. coli NCM3722, growth: P-lim chemostat, doubling time 12 h
[11] = E. coli NCM3722 delta-clpP, growth: N-lim chemostat, doubling time 6 h
[12] = wild type E. coli NCM3722, growth: N-lim chemostat, doubling time 12 h

Row | Sequence | total protein half-life in vivo [1] | total protein half-life in vivo [2] | total protein half-life in vivo [3] | total protein half-life in vivo [4] | total protein half-life in vivo [5] | total protein half-life in vivo [6] | total protein half-life in vivo [7] | total protein half-life in vivo [8] | total protein half-life in vivo [9] | total protein half-life in vivo [10] | total protein half-life in vivo [11] | total protein half-life in vivo [12]
1 | MVLQSTRWLALGYFTYFFSYGIFLPFWSVWLKGIGLTPETIGLLLGAGLVARFLGSLLIAPRVSDPSRLISALRVLALLTLLFAVAFWAGAHVAWLMLVMIGFNLFFSPLVPLTDALANTWQKQFPLDYGKVRLWGSVAFVIGSALTGKLVTMFDYRVILALLTLGVASMLLGFLIRPTIQPQGASRQQESTGWSAWLALVRQNWRFLACVCLLQGAHAAYYGFSAIYWQAAGYSASAVGYLWSLGVVAEVIIFALSNKLFRRCSARDMLLISAICGVVRWGIMGATTALPWLIVVQILHCGTFTVCHLAAMRYIAARQGSEVIRLQAVYSAVAMGGSIAIMTVFAGFLYQYLGHGVFWVMALVALPAMFLRPKVVPSC | 6.67 h | 4.51 h | 2.77 h | 10.4 ± 0.17 h | – | – | – | – | – | – | – | –
2 | MSEEKLGQHYLAALNEAFPGVVLDHAWQTKDQLTVTVKVNYLPEVVEFLYYKQGGWLSVLFGNDERKLNGHYAVYYVLSMEKGTKCWITVRVEVDANKPEYPSVTPRVPAAVWGEREVRDMYGLIPVGLPDERRLVLPDDWPDELYPLRKDSMDYRQRPAPTTDAETYEFINELGDKKNNVVPIGPLHVTSDEPGHFRLFVDGENIIDADYRLFYVHRGMEKLAETRMGYNEVTFLSDRVCGICGFAHSTAYTTSVENAMGIQVPERAQMIRAILLEVERLHSHLLNLGLACHFTGFDSGFMQFFRVRETSMKMAEILTGARKTYGLNLIGGIRRDLLKDDMIQTRQLAQQMRREVQELVDVLLSTPNMEQRTVGIGRLDPEIARDFSNVGPMVRASGHARDTRADHPFVGYGLLPMEVHSEQGCDVISRLKVRINEVYTALNMIDYGLDNLPGGPLMVEGFTYIPHRFALGFAEAPRGDDIHWSMTGDNQKLYRWRCRAATYANWPTLRYMLRGNTVSDAPLIIGSLDPCYSCTDRMTVVDVRKKKSKVVPYKELERYSIERKNSPLK | 3.68 h | 2.74 ± 0.029 h | 5.18 h | 11.2 ± 0.78 h | 4.79 h | 2.89 h | 2.46 h | 3.86 ± 1.7 h | 5.02 h | 8.26 ± 0.97 h | – | –
3 | MNIFTEAAKLEEQNCPFAMAQIVDSRGSTPRHSAQMLVRADGSIVGTIGGGMVERKVIEESLQALQERKPRLFHGRMARNGADAVGSDCGGAMSVFISVHGMRPRLVLIGAGHVNRAIAQSAALLGFDIAVADIYRESLNPELFPPSTTLLHAESFGAAVEALDIRPDNFVLIATNNQDREALDKLIEQPIAWLGLLASRRKVQLFLRQLREKGVAEEHIARLHAPVGYNIGAETPQEIAISVLAEILQVKNNAPGGLMMKPSHPSGHQLVVIRGAGDIASGVALRLYHAGFKVIMLEVEKPTVIRCTVAFAQAVFDGEMTVEGVTARLATSSAEAMKLTERGFIPVMVDPACSLLDELKPLCVVDAILAKQNLGTRADMAPVTIALGPGFTAGKDCHAVIETNRGHWLGQVIYSGCAQENTGVPGNIMGHTTRRVIRAPAAGIMRSNVKLGDLVKEGDVIAWIGEHEIKAPLTGMVRGLLNDGLAVVGGFKIGDIDPRGETADFTSVSDKARAIGGGVLEALMMLMHQGVKATKEVLEVA | – | – | – | – | 5.14 ± 0.82 h | – | – | – | – | – | 1.65 ± 0.36 h | 1.22 h
4 | MHEITLCQRALELIEQQAAKHGAKRVTGVWLKIGAFSCVETSSLAFCFDLVCRGSVAEGCKLHLEEQEAECWCETCQQYVTLLTQRVRRCPQCHGDMLQIVADDGLQIRRIEIDQE [P0A700] | – | 1.76 h | – | 11.3 h | 4.63 h | – | – | 2.36 h | – | – | 2.12 h | 2.23 h
5 | MKKIAIVGAGPTGIYTLFSLLQQQTPLSISIFEQADEAGVGMPYSDEENSKMMLANIASIEIPPIYCTYLEWLQKQEDSHLQRYGVKKETLHDRQFLPRILLGEYFRDQFLRLVDQARQQKFAVAVYESCQVTDLQITNAGVMLATNQDLPSETFDLAVIATGHVWPDEEEATRTYFPSPWSGLMEAKVDACNVGIMGTSLSGLDAAMAVAIQHGSFIEDDKQHVVFHRDNASEKLNITLLSRTGILPEADFYCPIPYEPLHIVTDQALNAEIQKGEEGLLDRVFRLIVEEIKFADPDWSQRIALESLNVDSFAQAWFAERKQRDPFDWAEKNLQEVERNKREKHTVPWRYVILRLHEAVQEIVPHLNEHDHKRFSKGLARVFIDNYAAIPSESIRRLLALREAGIIHILALGEDYKMEINESRTVLKTEDNSYSFDVFIDARGQRPLKVKDIPFPGLREQLQKTGDEIPDVGEDYTLQQPEDIRGRVAFGALPWLMHDQPFVQGLTACAEIGEAMARAVVKPASRARRRLSFD | 4.14 ± 0.29 h | 3.75 ± 0.084 h | 5.2 ± 0.33 h | 8.04 ± 1.7 h | 4.97 ± 0.15 h | 4.07 ± 0.29 h | 3.05 ± 0.16 h | 3.89 ± 0.12 h | 5.59 ± 0.087 h | 9.95 ± 0.48 h | 4.38 ± 0.22 h | 6.3 ± 0.43 h
6 | MKRVLFFLLMIFVSFGVIADCEIQAKDHDCFTIFAKGTIFSAFPVLNNKAMWRWYQNEDIGEYYWQTELGTCKNNKFTPSGARLLIRVGSLRLNENHAIKGTLQELINTAEKTAFLGDRFRSYIRAGIYQKKSSDPVQLLAVLDNSIMVKYFKDEKPTYARMTAHLPNKNESYECLIKIQHELIRSEEK | – | 1.13 h | – | 10.3 h | 1.81 h | – | – | – | – | – | – | 4.57 h
7 | MTINFRRNALQLSVAALFSSAFMANAADVPQVKVTVTDKQCEPMTITVNAGKTQFIIQNHSQKALEWEILKGVMVVEERENIAPGFSQKMTANLQPGEYDMTCGLLTNPKGKLIVKGEATADAAQSDALLSLGGAITAYKAYVMAETTQLVTDTKAFTDAIKAGDIEKAKALYAPTRQHYERIEPIAELFSDLDGSIDAREDDYEQKAADPKFTGFHRLEKALFGDNTTKGMDQYAEQLYTDVVDLQKRISELAFPPSKVVGGAAGLIEEVAASKISGEEDRYSHTDLWDFQANVEGSQKIVDLLRPQLQKANPELLAKVDANFKKVDTILAKYRTKDGFETYDKLTDADRNALKGPITALAEDLAQLRGVLGLD [P0AB24] | 5.84 ± 0.061 h | 4.58 ± 1.5 h | 6.25 ± 0.72 h | 12.8 ± 0.93 h | 4.39 ± 0.98 h | 6.43 ± 1.4 h | 2.967 ± 0.019 h | 5.73 ± 0.24 h | 5.01 ± 0.35 h | 12.2 ± 2.8 h | 4.5 ± 0.11 h | 10.3 ± 0.23 h
8 | MQHETKMENQSWLKKLARRLGPGHVVNLCFIVVLLFSTLLTWREVVVLEDAYISSQRNHLENVANALDKHLQYNVDKLIFLRNGMREALVAPLDFTSLRDAVTEFEQHRDEHAWKIELNRRRTLPVNGVSDALVSEGNLLSRENESLDNEITAALEVGYLLRLAHNSSSMVEQAMYVSRAGFYVSTQPTLFTRNVPTRYYGYVTQPWFIGHSQRENRHRAVRWFTSQPEHASNTEPQVTVSVPVDSNNYWYGVLGMSIPVRTMQQFLRNAIDKNLDGEYQLYDSKLRFLTSSNPDHPTGNIFDPRELALLAQAMEHDTRGGIRMDSRYVSWERLDHFDGVLVRVHTLSEGVRGDFGSISIALTLLWALFTTMLLISWYVIRRMVSNMYVLQSSLQWQAWHDTLTRLYNRGALFEKARPLAKLCQTHQHPFSVIQVDLDHFKAINDRFGHQAGDRVLSHAAGLISSSLRAQDVAGRVGGEEFCVILPGASLTEAAEVAERIRLKLNEKEMLIAKSTTIRISASLGVSSSEETGDYDFEQLQSLADRRLYLAKQAGRNRVFASDNA | – | 5.94 ± 0.3 h | 6.39 ± 0.087 h | 12.3 ± 0.47 h | – | 6.48 ± 0.5 h | 3.34 ± 0.062 h | 6.01 ± 0.53 h | 6.56 ± 0.22 h | 12.2 ± 0.31 h | 7.2 ± 0.57 h | –
9 | MKRTMLYLSLLAVSCSVSAAKYPVLTESSPEKAGFNVERLNQMDRWISQQVDVGYPSVNLLIIKDNQIVYRKAWGAAKKYDGSVLMEQPVKATTGTLYDLASNTKMYATNFALQKLMSEGKLHPDDRIAKYIPGFADSPNDTIKGKNTLRISDLLHHSGGFPADPQYPNKAVAGALYSQDKGQTLEMIKRTPLEYQPGSKHIYSDVDYMLLGFIVESVTGQPLDRYVEESIYRPLGLTHTVFNPLLKGFKPQQIAATELNGNTRDGVIHFPNIRTSTLWGQVHDEKAFYSMGGVSGHAGLFSNTGDIAVLMQTMLNGGGYGDVQLFNAETVKMFTTSSKEDATFGLGWRVNGNATMTPTFGTLASPQTYGHTGWTGTVTVIDPVNHMTIVMLSNKPHSPVADPQKNPNMFESGQLPIATYGWVVDQVYAALKQK | 5.56 ± 0.55 h | 5.13 ± 0.61 h | 6.3 ± 0.47 h | 10.4 ± 1.3 h | 6.01 ± 1.4 h | – | 3.15 ± 0.17 h | 5.42 ± 0.84 h | 5.84 ± 0.99 h | – | – | 11.2 ± 0.13 h
